# Measurements from publication PMC8063757, “The DNA-binding protein HU is a molecular glue that attaches bacteria to extracellular DNA in biofilms” (The Journal of Biological Chemistry, 2020).
# Where “and” joins values, the source holds several entries; their conditions need not be identical. Equal values may be shown once.
# What was measured:
# [1] = target: the molecule itself; assay: cross-linking; glutaraldehyde added to HU-B or its variant alone (no f-LPS); 15% SDS-PAGE, Coomassie Blue G-250 staining
# [2] = target: the molecule itself; assay: SEC; Superdex-75 10/300GL on an AKTA Purifier-10; elution at ~12 ml, corresponding to ~25 kDa
# [3] = target: LysrHU-A (Escherichia coli K-12, UniProt P0ACF0 1-90, K83A;K86A); assay: EMSA; EMSA on 0.7% or 1% agarose gels, EtBr stain; binding buffer, salt, pH and temperature not stated; details: protein: recombinant; chain copies: 2; label: none (EtBr stain); four-way junction of 4 strands, equimolar, one copy each; strands as printed are not perfectly complementary
# [4] = target: T1, LoodHU-B (Escherichia coli K-12, UniProt P0ACF4 1-51+=SGGGGSGGGGS+75-90, internal_change); assay: as above; details: protein: recombinant; chain copies: 2; label: none (EtBr stain); four-way junction of 4 strands, equimolar, one copy each; strands as printed are not perfectly complementary
# T1 sequence: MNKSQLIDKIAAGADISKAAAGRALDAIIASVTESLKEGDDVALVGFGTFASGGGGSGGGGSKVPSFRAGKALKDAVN
# [5] = target: T2, LoodHU-B K86A (Escherichia coli K-12, UniProt P0ACF4 1-51+=SGGGGSGGGGS+75-90, K86A;internal_change); assay: as above; details: protein: recombinant; chain copies: 2; label: none (EtBr stain); four-way junction of 4 strands, equimolar, one copy each; strands as printed are not perfectly complementary
# T2 sequence: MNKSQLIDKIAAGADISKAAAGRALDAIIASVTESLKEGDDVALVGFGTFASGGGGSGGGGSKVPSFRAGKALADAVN
# [6] = target: T3, F47W HU-B (Escherichia coli K-12, UniProt P0ACF4 1-90, F47W); assay: as above; details: protein: recombinant; chain copies: 2; label: none (EtBr stain); four-way junction of 4 strands, equimolar, one copy each; strands as printed are not perfectly complementary
# T3 sequence: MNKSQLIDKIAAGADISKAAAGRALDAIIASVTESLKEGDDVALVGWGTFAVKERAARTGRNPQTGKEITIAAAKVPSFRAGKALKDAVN
# [7] = target: T4, F79W HU-B (Escherichia coli K-12, UniProt P0ACF4 1-90, F79W); assay: as above; details: protein: recombinant; chain copies: 2; label: none (EtBr stain); four-way junction of 4 strands, equimolar, one copy each; strands as printed are not perfectly complementary
# T4 sequence: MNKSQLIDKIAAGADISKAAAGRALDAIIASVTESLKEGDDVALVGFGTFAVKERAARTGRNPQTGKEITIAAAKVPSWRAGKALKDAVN
# [8] = target: T5, HU-B K83A (Escherichia coli K-12, UniProt P0ACF4 1-90, K83A); assay: as above; details: protein: recombinant; chain copies: 2; label: none (EtBr stain); four-way junction of 4 strands, equimolar, one copy each; strands as printed are not perfectly complementary
# T5 sequence: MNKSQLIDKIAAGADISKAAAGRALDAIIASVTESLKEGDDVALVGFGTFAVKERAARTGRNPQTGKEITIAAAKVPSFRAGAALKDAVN
# [9] = target: T6, HU-B (Escherichia coli K-12, UniProt P0ACF4 1-90); assay: as above; details: protein: recombinant; chain copies: 2; label: none (EtBr stain); four-way junction of 4 strands, equimolar, one copy each; strands as printed are not perfectly complementary
# T6 sequence: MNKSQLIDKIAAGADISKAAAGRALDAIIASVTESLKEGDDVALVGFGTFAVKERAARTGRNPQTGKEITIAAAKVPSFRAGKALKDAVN
# [10] = target: T7, LoodLysrHU-B (Escherichia coli K-12, UniProt P0ACF4 1-51+=SGGGGSGGGGS+75-90, K83A;K86A;internal_change); assay: as above; details: protein: recombinant; chain copies: 2; label: none (EtBr stain); four-way junction of 4 strands, equimolar, one copy each; strands as printed are not perfectly complementary
# T7 sequence: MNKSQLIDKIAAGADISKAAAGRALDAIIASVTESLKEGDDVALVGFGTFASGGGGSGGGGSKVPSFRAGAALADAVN
# [11] = target: LoodLysrHU-A (Escherichia coli K-12, UniProt P0ACF0 1-51+=SGGGGSGGGGS+75-90, K83A;K86A;internal_change); assay: as above; details: protein: recombinant; chain copies: 2; label: none (EtBr stain); four-way junction of 4 strands, equimolar, one copy each; strands as printed are not perfectly complementary
# [12] = target: HU-A K83A (Escherichia coli K-12, UniProt P0ACF0 1-90, K83A); assay: as above; details: protein: recombinant; chain copies: 2; label: none (EtBr stain); four-way junction of 4 strands, equimolar, one copy each; strands as printed are not perfectly complementary
# [13] = target: LoodHU-A K83A (Escherichia coli K-12, UniProt P0ACF0 1-51+=SGGGGSGGGGS+75-90, K83A;internal_change); assay: as above; details: protein: recombinant; chain copies: 2; label: none (EtBr stain); four-way junction of 4 strands, equimolar, one copy each; strands as printed are not perfectly complementary
# [14] = target: HU-A K86A (Escherichia coli K-12, UniProt P0ACF0 1-90, K86A); assay: as above; details: protein: recombinant; chain copies: 2; label: none (EtBr stain); four-way junction of 4 strands, equimolar, one copy each; strands as printed are not perfectly complementary
# [15] = target: T8, LoodHU-B K83A (Escherichia coli K-12, UniProt P0ACF4 1-51+=SGGGGSGGGGS+75-90, K83A;internal_change); assay: as above; details: protein: recombinant; chain copies: 2; label: none (EtBr stain); four-way junction of 4 strands, equimolar, one copy each; strands as printed are not perfectly complementary
# T8 sequence: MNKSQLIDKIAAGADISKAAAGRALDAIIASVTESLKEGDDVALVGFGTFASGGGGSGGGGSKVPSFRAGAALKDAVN
# [16] = target: T9, HU-B K86A (Escherichia coli K-12, UniProt P0ACF4 1-90, K86A); assay: as above; details: protein: recombinant; chain copies: 2; label: none (EtBr stain); four-way junction of 4 strands, equimolar, one copy each; strands as printed are not perfectly complementary
# T9 sequence: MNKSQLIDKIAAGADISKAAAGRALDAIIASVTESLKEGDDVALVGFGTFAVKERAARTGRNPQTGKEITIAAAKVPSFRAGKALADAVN
# [17] = target: T10, LysrHU-B (Escherichia coli K-12, UniProt P0ACF4 1-90, K83A;K86A); assay: as above; details: protein: recombinant; chain copies: 2; label: none (EtBr stain); four-way junction of 4 strands, equimolar, one copy each; strands as printed are not perfectly complementary
# T10 sequence: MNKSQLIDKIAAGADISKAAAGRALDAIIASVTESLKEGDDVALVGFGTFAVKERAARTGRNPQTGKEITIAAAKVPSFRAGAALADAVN
# [18] = target: LoodHU-A K86A (Escherichia coli K-12, UniProt P0ACF0 1-51+=SGGGGSGGGGS+75-90, K86A;internal_change); assay: as above; details: protein: recombinant; chain copies: 2; label: none (EtBr stain); four-way junction of 4 strands, equimolar, one copy each; strands as printed are not perfectly complementary
binder,measurement,setting,value
"HU-B WT (6xHis-tagged) (natural protein, E. coli K-12, HU-B, isoform of the nucleoid-associated histone-like protein HU of E. coli; gene PCR-amplified from E. coli K-12 genomic DNA; ~90 amino acids, ~9.2-kDa polypeptide; Cloned between BamHI and HindIII of pQE-30; also called WT HU; source: E. coli XL-1 Blue (pQE-30), purified (Ni-NTA, 2 M NaCl wash)) MNKSQLIDKIAAGADISKAAAGRALDAIIASVTESLKEGDDVALVGFGTFAVKERAARTGRNPQTGKEITIAAAKVPSFRAGKALKDAVN",stoichiometry N,[1],2 and 4 and 3 and 6
"LysrHU-B (lysine-replaced HU-B, K83A and K86A) (natural protein, E. coli K-12, source: E. coli XL-1 Blue (pQE-30), purified (Ni-NTA, 2 M NaCl wash)) MNKSQLIDKIAAGADISKAAAGRALDAIIASVTESLKEGDDVALVGFGTFAVKERAARTGRNPQTGKEITIAAAKVPSFRAGAALADAVN",stoichiometry N,[2],2
same,stoichiometry N,[1],4
4WJ DNA (structured_DNA) DNA 1: CCCTATAACCCCTGCATTGAATTCCTGTCTGATAA DNA 2: GTAGTCGTGATAGGTGCAGGGGTTATAGGG DNA 3: AACAGTAGCTCTTAATTCGAGCTCGCGCCCTATCACGACTA DNA 4: TTTATCAGACTGGAATTCAAGCGCGAGCTCGAATAAGAGCTACTGT,binding result,[3],binds
same,binding result,[4],binds
same,binding result,[5],no binding
same,binding result,[6],binds
same,binding result,[7],binds
same,binding result,[8],binds
same,binding result,[9],binds
same,binding result,[10],no binding
same,binding result,[11],no binding
same,binding result,[12],binds
same,binding result,[13],no binding
same,binding result,[14],binds
same,binding result,[15],no binding
same,binding result,[16],binds
same,binding result,[17],binds
same,binding result,[18],no binding
"LoodLysrHU-B (loop-deleted and lysine-replaced HU-B) (natural protein, E. coli K-12, HU-B of E. coli K-12, the stretch before the deleted loop (residues 52 to 74 deleted); 11-residue glycine/serine-rich linker that replaces residues 52 to 74; HU-B of E. coli K-12, the stretch after the deleted loop, with K83A and K86A (numbers count on unchanged HU-B); Combines the LoodHU-B and LysrHU-B changes; source: E. coli XL-1 Blue (pQE-30), purified (Ni-NTA, 2 M NaCl wash)) MNKSQLIDKIAAGADISKAAAGRALDAIIASVTESLKEGDDVALVGFGTFASGGGGSGGGGSKVPSFRAGAALADAVN",stoichiometry N,[2],2
same,stoichiometry N,[1],4
"LoodHU-B (loop-deleted HU-B) (natural protein, E. coli K-12, HU-B of E. coli K-12, the stretch before the deleted loop (residues 52 to 74 deleted); 11-residue glycine/serine-rich linker that replaces residues 52 to 74; HU-B of E. coli K-12, the stretch after the deleted loop (residues 52 to 74 deleted); The results call the loop 22 residues long, but residues 52 to 74 are 23 residues; source: E. coli XL-1 Blue (pQE-30), purified (Ni-NTA, 2 M NaCl wash)) MNKSQLIDKIAAGADISKAAAGRALDAIIASVTESLKEGDDVALVGFGTFASGGGGSGGGGSKVPSFRAGKALKDAVN",stoichiometry N,[2],2
same,stoichiometry N,[1],4
